Here are results for three sequences from patent publication US5885833.

For the series, the target named is E2F1-DP1 heterodimer (E2F1 aa 87-1398 as printed) (Homo sapiens?) (UniProt Q01094+Q14186). Description: EMSA.
Where [1] appears, read: complex not specified individually.

Sequence of E2F1-DP1 heterodimer (E2F1 aa 87-1398 as printed) (Homo sapiens?) (Q01094 whole entry, chain 1 of 2, the tested form may be a part): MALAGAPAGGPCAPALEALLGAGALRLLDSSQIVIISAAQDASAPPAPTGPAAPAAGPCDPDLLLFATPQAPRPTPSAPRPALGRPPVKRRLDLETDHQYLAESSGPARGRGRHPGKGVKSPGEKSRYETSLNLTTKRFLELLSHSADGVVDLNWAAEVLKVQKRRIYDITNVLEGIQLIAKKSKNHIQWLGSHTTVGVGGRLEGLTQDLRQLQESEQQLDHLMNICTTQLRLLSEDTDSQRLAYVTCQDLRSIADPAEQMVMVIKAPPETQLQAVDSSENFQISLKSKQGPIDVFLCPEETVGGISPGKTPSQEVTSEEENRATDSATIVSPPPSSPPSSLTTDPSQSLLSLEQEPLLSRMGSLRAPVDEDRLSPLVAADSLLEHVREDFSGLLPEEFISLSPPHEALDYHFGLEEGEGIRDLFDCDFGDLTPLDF
Sequence of E2F1-DP1 heterodimer (E2F1 aa 87-1398 as printed) (Homo sapiens?) (Q14186 whole entry, chain 2 of 2, the tested form may be a part): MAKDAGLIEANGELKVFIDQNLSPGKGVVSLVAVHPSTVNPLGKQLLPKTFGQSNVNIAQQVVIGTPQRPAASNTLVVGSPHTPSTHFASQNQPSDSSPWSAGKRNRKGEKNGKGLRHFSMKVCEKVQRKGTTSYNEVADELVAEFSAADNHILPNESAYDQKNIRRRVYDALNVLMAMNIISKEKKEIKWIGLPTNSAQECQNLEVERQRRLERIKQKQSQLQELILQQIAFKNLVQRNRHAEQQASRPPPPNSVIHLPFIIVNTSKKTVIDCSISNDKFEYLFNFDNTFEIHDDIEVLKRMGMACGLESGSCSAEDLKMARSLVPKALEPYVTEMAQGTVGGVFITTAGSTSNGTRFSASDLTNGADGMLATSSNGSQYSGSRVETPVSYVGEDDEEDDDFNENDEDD

With “GATCCTCTCACCTGCTGCTAG (double strand) [control probe]”, the binding signal (% probe bound) under setting [1] was less than 0.002.
The sequence “GATCGACTAGTTTCGCGCCCTTTCTACTAG (double strand) [E2a adenovirus promoter probe]” registered a binding signal (% probe bound) (22 C, 50 mM NaCl, pH 8.0) of 1.
As for “GGCGCCGACGCACTTGGCTGGAGATAGGAAAGTGGTTCTGTG (double strand) [mutated B-myb probe]”, under setting [1], the binding signal (% probe bound) is less than 0.01.
